Assay results from US20250340595A1 (published 2025).
Read-outs that look alike come from different tables or passages of the source. One block for each binder: values may come before it. Starred links: 1 amine or outer side, 2 acyl side, 3 side chain; linkers in the order of their positions; H or OH if unused. Positions of bridges follow the written chain, without caps; N, C: chain ends. Non-standard residues stand in square brackets, D forms with d. No end group written: not given here. Fluorescein = fluorescein label on the C-terminal Lys side chain; TATA = O=C(CC[*:1])N1CN(C(=O)CC[*:2])CN(C(=O)CC[*:3])C1; TATB = O=C(C[*:1])N1CN(C(=O)C[*:2])CN(C(=O)C[*:3])C1; Tle = CC(C)(C)[C@H](N)C(=O)O; Sar = CNCC(=O)O

How the values were obtained:
[1] = target: T1, Human TfR1 protein (R&D Systems, 2474-TR or Acro Biosystems, CD1-H5243) (human, UniProt P02786 89-760); experiment: Alpha assay, competition with labelled transferrin
T1 sequence (P02786 89-760 limits assumed): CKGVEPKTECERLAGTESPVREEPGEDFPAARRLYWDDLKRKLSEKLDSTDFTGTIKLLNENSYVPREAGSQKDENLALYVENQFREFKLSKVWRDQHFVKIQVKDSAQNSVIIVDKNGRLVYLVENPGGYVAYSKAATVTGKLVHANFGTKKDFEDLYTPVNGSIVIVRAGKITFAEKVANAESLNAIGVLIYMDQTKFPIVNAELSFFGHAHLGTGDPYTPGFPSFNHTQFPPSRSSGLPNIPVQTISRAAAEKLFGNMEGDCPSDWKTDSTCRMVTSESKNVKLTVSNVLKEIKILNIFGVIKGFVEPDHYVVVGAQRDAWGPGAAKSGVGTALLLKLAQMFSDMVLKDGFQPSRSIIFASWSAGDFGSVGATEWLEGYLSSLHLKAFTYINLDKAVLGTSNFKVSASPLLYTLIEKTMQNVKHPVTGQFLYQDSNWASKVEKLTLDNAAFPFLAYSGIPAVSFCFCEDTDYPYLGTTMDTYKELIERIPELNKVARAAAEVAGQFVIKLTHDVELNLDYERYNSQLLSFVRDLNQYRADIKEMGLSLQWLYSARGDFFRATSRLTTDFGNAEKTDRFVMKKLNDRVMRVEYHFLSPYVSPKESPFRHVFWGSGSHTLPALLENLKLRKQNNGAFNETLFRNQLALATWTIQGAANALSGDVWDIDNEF

[2] = target: T2, Recombinant human TfR1, His6-tagged (a.a. 89-760) (human, UniProt P02786 89-760); experiment: SPR, TfR1 on chip
T2 construct: range 89-760; captured and coupled on an NTA chip for SPR; also called transferrin receptor 1; CD71
T2 sequence (P02786 89-760 limits assumed): as above

[3] = target: T3, Recombinant cynomolgus TfR1, His6-tagged (a.a. 89-760) (cynomolgus, UniProt H9EXL1 89-760 (rhesus entry)); experiment: SPR, TfR1 on chip
T3 construct: range 89-760; same product number named for FP and SPR; also called Cyno TfR1; Acro Biosystems TFR-C524a
T3 sequence (chain, as listed by the source): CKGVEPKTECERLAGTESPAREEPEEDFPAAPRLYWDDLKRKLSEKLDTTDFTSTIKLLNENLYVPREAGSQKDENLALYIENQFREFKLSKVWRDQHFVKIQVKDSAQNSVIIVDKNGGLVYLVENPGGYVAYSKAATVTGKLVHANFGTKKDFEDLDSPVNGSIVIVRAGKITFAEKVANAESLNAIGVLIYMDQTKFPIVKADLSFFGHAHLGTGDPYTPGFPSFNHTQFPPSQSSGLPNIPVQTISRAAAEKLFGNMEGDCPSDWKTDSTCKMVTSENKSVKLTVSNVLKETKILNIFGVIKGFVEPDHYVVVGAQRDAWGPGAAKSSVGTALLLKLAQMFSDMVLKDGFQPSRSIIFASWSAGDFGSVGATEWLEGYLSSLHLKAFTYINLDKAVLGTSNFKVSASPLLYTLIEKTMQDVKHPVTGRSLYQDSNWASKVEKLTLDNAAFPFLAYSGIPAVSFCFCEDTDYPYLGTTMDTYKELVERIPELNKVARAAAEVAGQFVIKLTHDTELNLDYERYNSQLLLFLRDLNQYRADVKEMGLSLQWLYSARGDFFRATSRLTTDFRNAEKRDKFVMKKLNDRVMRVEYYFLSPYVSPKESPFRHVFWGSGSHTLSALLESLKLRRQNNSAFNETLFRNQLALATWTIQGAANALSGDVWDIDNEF

[4] = target: T1, Human TfR1 protein (R&D Systems, …); experiment: FP competition, competitor BCY15768
[5] = target: T1, Human TfR1 protein (R&D Systems, …); experiment: FP competition, competitor BCY15768; remark: listed apart in the source
[6] = target: T3, Recombinant cynomolgus TfR1, …; experiment: FP competition, competitor BCY15768
[7] = target: T3, Recombinant cynomolgus TfR1, …; experiment: FP direct binding
[8] = target: T2, Recombinant human TfR1, His6-tagged …; experiment: SPR, TfR1 on chip; remark: listed apart in the source
[9] = target: T3, Recombinant cynomolgus TfR1, …; experiment: SPR, TfR1 on chip; remark: listed apart in the source
[10] = target: T3, Recombinant cynomolgus TfR1, …; experiment: FP competition table (Table 6)

Binder: ACLEACYDGVYWYSCA (3 Cys on TATA) [BCY12454]
- IC50 [1]: 0.893 µM

Binder: ACALCNDWTLPWHHCA[Sar][Sar][Sar][Sar][Sar][Sar]K(Fluorescein) (linker 2-5-15 via TATA) [BCY12652]
- Kd [7]: 0.098 µM

Binder: ACALCNDWTLPWHHCA (3 Cys on TATA) [BCY12455]
- Kd [8]: 65.6 µM
- Kd [9]: 42.4 µM
- IC50 [1]: 0.673 µM

Binder: ACSSDAYLGCISWCA (3 Cys on TATB) [BCY13986]
- Kd [8]: 132 µM
- Kd [9]: 2590 µM

Binder: ACSADDWLGCISWCA (3 Cys on TATB) [BCY13983]
- Kd [8]: 450 µM
- Kd [9]: 4580 µM

B1: BCY12452 (peptide)
peptide: ACREFFDTCGLAFIECA-NH2
modifications: linker 2-9-16 via TATA; N-terminus assumed
SMILES: CC[C@H](C)[C@@H]1NC(=O)[C@H](Cc2ccccc2)NC(=O)[C@H](C)NC(=O)[C@H](CC(C)C)NC(=O)CNC(=O)[C@@H]2CSCCC(=O)N3CN(CN(C3)C(=O)CCSC[C@@H](C(=O)N[C@@H](C)C(N)=O)NC(=O)[C@H](CCC(=O)O)NC1=O)C(=O)CCSC[C@H](NC(=O)[C@H](C)N)C(=O)N[C@@H](CCCNC(=N)N)C(=O)N[C@@H](CCC(=O)O)C(=O)N[C@@H](Cc1ccccc1)C(=O)N[C@@H](Cc1ccccc1)C(=O)N[C@@H](CC(=O)O)C(=O)N[C@@H]([C@@H](C)O)C(=O)N2
- IC50 [1]: 1.22 µM

Binder: ACPPDSWQGCISYCA (linker 2-10-14 via TATB) [BCY13989]
- Kd [8]: 376 µM
- Kd [9]: 3440 µM
- Kd [3]: ~11 µM
- Ki [4]: 0.565 µM
- Ki [5]: 0.565 µM
- Ki [6]: 3.44 µM

Binder: ACSPDAHLGCISYCAXXXXXXK (3 Cys on TATB; [Sar6]; C-terminal Lys carries fluorescein) [BCY15768]
- Kd [7]: 0.707 µM
- Kd [3]: 3.8 µM
- Ki [10]: 1.07 µM

Second part, the binder after the results:

- Kd [2]: 0.025 µM
- Kd [3]: 1.82 µM
- Ki [4]: 0.066 µM
- Ki [5]: 0.066 µM
- Ki [6]: 0.482 µM
Binder: ACSPDAHLGC[Tle]SYCA (linker 2-10-14 via TATB) [BCY16051]

- Kd [7]: 2.62 µM
Binder: ACSSDAYLGCISWCA[Sar][Sar][Sar][Sar][Sar][Sar]K(Fluorescein) (linker 2-10-14 via TATB) [BCY14475]

- Kd [8]: 263 µM
- Kd [9]: 4660 µM
- Ki [4]: 0.434 µM
- Ki [5]: 0.434 µM
- Ki [6]: 4.66 µM
Binder: ACSADDWLGCISYCA (linker 2-10-14 via TATB) [BCY15471]

- Kd [8]: 29.5 µM
- Kd [9]: 1580 µM
- Ki [4]: 0.133 µM
Binder: ACPQDAYLGCISWCA (linker 2-10-14 via TATB) [BCY15467]

- Kd [3]: 1.28 µM
- Ki [6]: 0.621 µM
Binder: ACPPDAHLGCISYCA (3 Cys on TATB) [BCY16048]

- Kd [7]: 3.65 µM
Binder: ACPPDSWQGCISYCA[Sar][Sar][Sar][Sar][Sar][Sar]K(Fluorescein) (linker 2-10-14 via TATB) [BCY14476]

- Kd [2]: 0.07 µM
- Kd [3]: 2.2 µM
- Ki [10]: 1.12 µM
Binder: ACAPDAHLGCISYCA[Sar][Sar][Sar][Sar][Sar][Sar]K(Fluorescein) (linker 2-10-14 via TATB) [BCY15769]
